Measurements: patent publication US20110177501

Tests used:
[1] = target: 6-IATR-E. coli SSB (W88C) W88C (mature protein numbering as printed) (Escherichia coli) (UniProt P0AGE0); conditions: data not shown
[2] = system: AddAB helicase-nuclease (nuclease-deficient AddA D1172A, AddB D961A) AddA D1172A, AddB D961A (Bacillus subtilis); conditions: unwinding monitored with IDCC-SSB at low ionic strength (20 mM NaCl), 2 mM MgCl2, ATP, 37 C; weaker at 200 mM NaCl

poly-dT
activity (fold fluorescence (+/- DNA)) [1]: 4.5

EcoRI-linearized pBR322
activity (bp s-1 per binding site) [2]: 1000
